Data on one protein can be found in doi:10.1101/2022.03.25.485784 (bioRxiv, 2022).

This data set deals with the molecule itself. Put plainly: cryo-EM structure.

B1: dtSARM1, the full-length SARM1 with the N-terminal 27-aa segment replaced by a twin-Strep and Flag-tag (enzyme)
chain: LAVPGPDGGGGTGPWWAAGGRGPREVSPGAGTEVQDALERALPELQQALSALKQAGGARAVGAGLAEVFQLVEEAWLLPAVGREVAQGLCDAIRLDGGLDLLLRLLQAPELETRVQAARLLEQILVAENRDRVARIGLGVILNLAKEREPVELARSVAGILEHMFKHSEETCQRLVAAGGLDAVLYWCRRTDPALLRHCALALGNCALHGGQAVQRRMVEKRAAEWLFPLAFSKEDELLRLHACLAVAVLATNKEVEREVERSGTLALVEPLVASLDPGRFARCLVDASDTSQGRGPDDLQRLVPLLDSNRLEAQCIGAFYLCAEAAIKSLQGKTKVFSDIGAIQSLKRLVSYSTNGTKSALAKRALRLLGEEVPRPILPSVPSWKEAEVQTWLQQIGFSKYCESFREQQVDGDLLLRLTEEELQTDLGMKSGITRKRFFRELTELKTFANYSTCDRSNLADWLGSLDPRFRQYTYGLVSCGLDRSLLHRVSEQQLLEDCGIHLGVHRARILTAAREMLHSPLPCTGGKPSGDTPDVFISYRRNSGSQLASLLKVHLQLHGFSVFIDVEKLEAGKFEDKLIQSVMGARNFVLVLSPGALDKCMQDHDCKDWVHKEIVTALSCGKNIVPIIDGFEWPEPQVLPEDMQAVLTFNGIKWSHEYQEATIEKIIRFLQGRSSRDSSAGSDTSLEGAAPMGPT
As to B1, the “stoichiometry N” value is 8.
